Laboratory results reported in paper PMC6269214 (Biochimica et biophysica acta. Proteins and proteomics, 2018).

Tests used:
SEC = target: the molecule itself; experiment: SEC
SEC-MALS = target: the molecule itself; experiment: SEC-MALS

B1: cavsol (full-length, soluble human caveolin-1 variant gen-2d) (other)
chain: MSGGKYVDSEGHLYTVPIREQGNIYKPNNKAMADELSEKQVYDAHTKEIDLVNRDPKHLNDDVVKIDFEDVIAEPEGTHSFDGIWKASFTTFTVTKYWFYRLLSAHEGIPMALSRGVEVAQVSDHHIRADDPCIKSFLIEIQCISRVYSIYVHTVCDPLFEAVGKIFSNVRINLQKEI
SEC
  stoichiometry N: 24 monomers
SEC-MALS
  stoichiometry N: ~90 cav monomers
